Laboratory results published in IntAct's records for PubMed 31515488.

B1: Coiled-coil domain-containing protein 33 (Homo sapiens), Q8N5R6-5 (parent)
chain: MGEPGPPSPPAPKAAPGLIDSFSEMNNYRRAMQKMAEDILSLRRQASILEGENRILRSRLAQQEEEEGQGKASEAQNTVSMKQKLLLSELDMKKLRDRVQHLQNELIRKNDREKELLLLYQAQQPQAALLKQYQGKLQKMKALEETVRHQEKVIEKMERVLEDRLQDRSKPPPLNRQQGKPYTGFPMLSASGLPLGSMGENLPVELYSVLLAENAKLRTELDKNRHQQAPIILQQQALPVDPGELGAGGDLTERLQETHGPGHSECTETLPAQDLLSGTSDKFNLLAKLEHAQSRILSLESQLEDSARRWGREKQDLATRLQEQEKGFRHPSNSIIIEQPVSDPPGVAPRGSGGGAGSHRTPKVTGP
partner: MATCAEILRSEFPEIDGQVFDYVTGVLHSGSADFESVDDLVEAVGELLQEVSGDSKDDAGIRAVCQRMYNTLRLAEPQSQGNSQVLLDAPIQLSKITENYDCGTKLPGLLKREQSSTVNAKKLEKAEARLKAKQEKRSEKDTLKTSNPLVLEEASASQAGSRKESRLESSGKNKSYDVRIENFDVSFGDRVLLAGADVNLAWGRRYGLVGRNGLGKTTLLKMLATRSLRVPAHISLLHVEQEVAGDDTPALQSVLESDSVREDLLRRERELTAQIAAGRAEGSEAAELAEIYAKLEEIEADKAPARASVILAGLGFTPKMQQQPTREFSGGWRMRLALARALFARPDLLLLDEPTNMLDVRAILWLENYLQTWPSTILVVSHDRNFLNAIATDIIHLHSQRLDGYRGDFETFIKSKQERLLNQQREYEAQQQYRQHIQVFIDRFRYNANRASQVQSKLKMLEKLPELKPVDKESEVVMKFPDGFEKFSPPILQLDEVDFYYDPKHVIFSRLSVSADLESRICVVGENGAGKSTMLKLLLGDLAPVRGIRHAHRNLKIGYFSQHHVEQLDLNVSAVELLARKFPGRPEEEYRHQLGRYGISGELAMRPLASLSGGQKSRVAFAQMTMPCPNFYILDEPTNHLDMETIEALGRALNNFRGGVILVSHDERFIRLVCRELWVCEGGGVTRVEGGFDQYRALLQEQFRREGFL
B2: MYG1 exonuclease (Homo sapiens), Q9HB07 (parent)
chain: MGHRFLRGLLTLLLPPPPLYTRHRMLGPESVPPPKRSRSKLMAPPRIGTHNGTFHCDEALACALLRLLPEYRDAEIVRTRDPEKLASCDIVVDVGGEYDPRRHRYDHHQRSFTETMSSLSPGKPWQTKLSSAGLIYLHFGHKLLAQLLGTSEEDSMVGTLYDKMYENFVEEVDAVDNGISQWAEGEPRYALTTTLSARVARLNPTWNHPDQDTEAGFKRAMDLVQEEFLQRLDFYQHSWLPARALVEEALAQRFQVDPSGEIVELAKGACPWKEHLYHLESGLSPPVAIFFVIYTDQAGQWRIQCVPKEPHSFQSRLPLPEPWRGLRDEALDQVSGIPGCIFVHASGFIGGHRTREGALSMARATLAQRSYLPQIS
partner: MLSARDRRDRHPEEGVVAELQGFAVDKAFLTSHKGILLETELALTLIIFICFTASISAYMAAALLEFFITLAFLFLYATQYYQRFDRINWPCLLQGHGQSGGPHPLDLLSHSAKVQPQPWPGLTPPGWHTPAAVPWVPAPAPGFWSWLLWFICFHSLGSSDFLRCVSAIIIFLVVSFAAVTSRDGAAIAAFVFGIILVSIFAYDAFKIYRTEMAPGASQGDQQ
B3: Zinc finger protein Aiolos (Homo sapiens), Q9UKT9 (parent)
chain: MEDIQTNAELKSTQEQSVPAESAAVLNDYSLTKSHEMENVDSGEGPANEDEDIGDDSMKVKDEYSERDENVLKSEPMGNAEEPEIPYSYSREYNEYENIKLERHVVSFDSSRPTSGKMNCDVCGLSCISFNVLMVHKRSHTGERPFQCNQCGASFTQKGNLLRHIKLHTGEKPFKCHLCNYACQRRDALTGHLRTHSVEKPYKCEFCGRSYKQRSSLEEHKERCRTFLQSTDPGDTASAEARHIKAEMGSERALVLDRLASNVAKRKSSMPQKFIGEKRHCFDVNYNSSYMYEKESELIQTRMMDQAINNAISYLGAEALRPLVQTPPAPTSEMVPVISSMYPIALTRAEMSNGAPQELEKKSIHLPEKSVPSERGLSPNNSGHDSTDTDSNHEERQNHIYQQNHMVLSRARNGMPLLKEVPRSYELLKPPPICPRDSVKVINKEGEVMDVYRCDHCRVLFLDYVMFTIHMGCHGFRDPFECNMCGYRSHDRYEFSSHIARGEHRALLK
partner: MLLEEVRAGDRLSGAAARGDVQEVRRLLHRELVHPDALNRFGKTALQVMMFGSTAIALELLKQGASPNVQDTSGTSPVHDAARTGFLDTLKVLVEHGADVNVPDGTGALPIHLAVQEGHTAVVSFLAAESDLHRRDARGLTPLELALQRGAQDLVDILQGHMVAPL
B4: Isoform 1 of Protein quaking (Homo sapiens), Q96PU8-1 (parent)
chain: MVGEMETKEKPKPTPDYLMQLMNDKKLMSSLPNFCGIFNHLERLLDEEISRVRKDMYNDTLNGSTEKRSAELPDAVGPIVQLQEKLYVPVKEYPDFNFVGRILGPRGLTAKQLEAETGCKIMVRGKGSMRDKKKEEQNRGKPNWEHLNEDLHVLITVEDAQNRAEIKLKRAVEEVKKLLVPAAEGEDSLKKMQLMELAILNGTYRDANIKSPALAFSLAATAQAAPRIITGPAPVLPPAALRTPTPAGPTIMPLIRQIQTAVMPNGTPHPTAAIVPPGPEAGLIYTPYEYPYTLAPATSILEYPIEPSGVLGAVATKVRRHDMRVHPYQRIVTADRAATGN
B5: Zinc finger protein 655 (Homo sapiens), Q8N720 (parent)
chain: MEEIPAQEAAGSPRVQFQSLETQSECLSPEPQFVQDTDMEQGLTGDGETREENKLLIPKQKISEEVHSYKVRVGRLKHDITQVPETREVYKSEDRLERLQEILRKFLYLEREFRQITISKETFTSEKNNECHEPEKSFSLDSTIDADQRVLRIQNTDDNDKYDMSFNQNSASGKHEHLNLTEDFQSSECKESLMDLSHLNKWESIPNTEKSYKCDVCGKIFHQSSALTRHQRIHTREKPYKCKECEKSFSQSSSLSRHKRIHTREKPYKCEASDKSCEASDKSCSPSSGIIQHKKIHTRAKSYKCSSCERVFSRSVHLTQHQKIHKEMPCKCTVCGSDFCHTSYLLEHQRVHHEEKAYEYDEYGLAYIKQQGIHFREKPYTCSECGKDFRLNSHLIQHQRIHTGEKAHECNECGKAFSQTSCLIQHHKMHRKEKSYECNEYEGSFSHSSDLILQQEVLTRQKAFDCDVWEKNSSQRAHLVQHQSIHTKENS
partner: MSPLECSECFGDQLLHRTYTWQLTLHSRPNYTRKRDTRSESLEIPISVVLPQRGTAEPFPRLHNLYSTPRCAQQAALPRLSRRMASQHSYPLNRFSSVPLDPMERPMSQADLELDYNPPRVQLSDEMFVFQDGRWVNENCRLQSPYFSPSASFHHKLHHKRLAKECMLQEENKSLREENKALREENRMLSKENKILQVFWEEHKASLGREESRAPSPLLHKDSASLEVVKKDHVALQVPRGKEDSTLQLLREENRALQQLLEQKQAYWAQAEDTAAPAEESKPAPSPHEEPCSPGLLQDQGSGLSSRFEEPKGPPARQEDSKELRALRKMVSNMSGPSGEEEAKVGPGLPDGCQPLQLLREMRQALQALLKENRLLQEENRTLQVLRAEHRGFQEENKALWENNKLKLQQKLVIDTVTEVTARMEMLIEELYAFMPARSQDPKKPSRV
B6: RUN and FYVE domain-containing protein 1 (Homo sapiens), Q96T51-2 (parent)
chain: MMEERANLMHMMKLSIKVLLQSALSLGRSLDADHAPLQQFFVVMEHCLKHGLKVKKSFIGQNKSFFGPLELVEKLCPEASDIATSVRNLPELKTAVGRGRAWLYLALMQKKLADYLKVLIDNKHLLSEFYEPEALMMEEEGMVIVGLLVGLNVLDANLCLKGEDLDSQVGVIDFSLYLKDVQDLDGGKEHERITDVLDQKNYVEELNRHLSCTVGDLQTKIDGLEKTNSKLQEELSAATDRICSLQEEQQQLREQNELIRERSEKSVEITKQDTKVELETYKQTRQGLDEMYSDVWKQLKEEKKVRLELEKELELQIGMKTEMEIAMKLLEKDTHEKQDTLVALRQQLEEVKAINLQMFHKAQNAESSLQQKNEAITSFEGKTNQVMSSMKQMEERLQHSERARQGAEERSHKLQQELGGRIGALQLQLSQLHEQCSSLEKELKSEKEQRQALQRELQHEKDTSSLLRMELQQVEGLKKELRELQDEKAELQKICEEQEQALQEMGLHLSQSKLKMEDIKEVNQALKGHAWLKDDEATHCRQCEKEFSISRRKHHCRNCGHIFCNTCSSNELALPSYPKPVRVCDSCHTLLLQRCSSTAS
partner: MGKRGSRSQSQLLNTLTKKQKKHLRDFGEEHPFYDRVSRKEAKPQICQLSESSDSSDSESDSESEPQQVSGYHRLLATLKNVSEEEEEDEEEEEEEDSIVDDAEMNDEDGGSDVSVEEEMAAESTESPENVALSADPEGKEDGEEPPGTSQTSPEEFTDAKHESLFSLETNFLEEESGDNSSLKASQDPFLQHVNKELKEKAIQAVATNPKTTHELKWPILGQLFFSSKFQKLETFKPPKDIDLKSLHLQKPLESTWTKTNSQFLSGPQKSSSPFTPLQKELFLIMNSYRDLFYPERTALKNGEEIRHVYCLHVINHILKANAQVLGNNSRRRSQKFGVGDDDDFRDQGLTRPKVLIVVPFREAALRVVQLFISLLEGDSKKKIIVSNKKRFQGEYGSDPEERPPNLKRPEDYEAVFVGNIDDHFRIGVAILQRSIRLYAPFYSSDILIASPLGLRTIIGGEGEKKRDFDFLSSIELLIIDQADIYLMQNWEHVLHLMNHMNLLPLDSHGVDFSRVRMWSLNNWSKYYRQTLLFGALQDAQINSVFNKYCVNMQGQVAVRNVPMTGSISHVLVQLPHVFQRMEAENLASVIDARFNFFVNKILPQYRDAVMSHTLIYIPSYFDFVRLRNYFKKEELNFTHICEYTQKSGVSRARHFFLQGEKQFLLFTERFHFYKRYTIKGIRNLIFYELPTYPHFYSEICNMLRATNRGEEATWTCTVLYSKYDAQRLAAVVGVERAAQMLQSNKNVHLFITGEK

Variants of: B1
Conditions: with abcf3_human ABCF3, Q9NUQ8

| effect of a mutation on the interaction | Variant |
| --- | --- |
| with no effect | G196R |
| with no effect | R30L |

Variants of: B2
Conditions: with cklf5_human CMTM5, Q96DZ9

| effect of a mutation on the interaction | Variant |
| --- | --- |
| with no effect | R188Q |
| with no effect | R243Q |

Variants of: B3
Conditions: with cdn2d_human CDKN2D

| effect of a mutation on the interaction | Variant |
| --- | --- |
| with no effect | A24V |
| with no effect | N119D |

Variants of: B3
Conditions: with cdn2d_human CDKN2D
Remark: another data set of the same source

| effect of a mutation on the interaction | Variant |
| --- | --- |
| with no effect | I338M |

Variants of: B4
Conditions: with hnrpk_human HNRNPK

| effect of a mutation on the interaction | Variant |
| --- | --- |
| with no effect | R336Q |

Variants of: B4
Conditions: with fubp3_human FUBP3, Q96I24
Chain of fubp3_human FUBP3, Q96I24 (Q96I24 whole entry): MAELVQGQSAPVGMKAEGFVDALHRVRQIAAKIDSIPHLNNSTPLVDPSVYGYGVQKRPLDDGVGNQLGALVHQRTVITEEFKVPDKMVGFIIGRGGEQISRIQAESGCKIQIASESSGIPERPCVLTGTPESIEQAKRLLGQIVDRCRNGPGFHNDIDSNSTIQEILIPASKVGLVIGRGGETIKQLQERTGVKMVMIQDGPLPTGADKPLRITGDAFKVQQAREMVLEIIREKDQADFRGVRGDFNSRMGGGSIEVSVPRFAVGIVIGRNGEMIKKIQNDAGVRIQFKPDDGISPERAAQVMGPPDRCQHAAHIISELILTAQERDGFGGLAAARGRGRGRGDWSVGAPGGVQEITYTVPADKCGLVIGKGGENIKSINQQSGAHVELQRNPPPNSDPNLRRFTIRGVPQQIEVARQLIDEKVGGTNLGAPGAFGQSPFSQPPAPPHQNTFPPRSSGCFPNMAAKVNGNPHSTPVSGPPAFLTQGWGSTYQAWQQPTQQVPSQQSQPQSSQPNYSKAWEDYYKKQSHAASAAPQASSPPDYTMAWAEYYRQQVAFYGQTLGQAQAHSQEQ

| effect of a mutation on the interaction | Variant |
| --- | --- |
| with no effect | R336Q |

Variants of: B4
Conditions: with rbpms_human RBPMS

| effect of a mutation on the interaction | Variant |
| --- | --- |
| with no effect | R336Q |

Variants of: B5
Conditions: with cby2_human CBY2, Q8NA61

| effect of a mutation on the interaction | Variant |
| --- | --- |
| with no effect | C466G |

Variants of: B6
Conditions: with utp25_human UTP25, Q68CQ4

| effect of a mutation on the interaction | Variant |
| --- | --- |
| with no effect | C159F |
